Measurements: article PMC6887548 (Nature, 2019)
Blank lines part the entries; values can stand above or below the binder they belong to.

What was measured:
Mcm2 = biological target: T1, Mcm2 (yeast, UniProt P29469); assay: cryo-EM structure
T1 sequence: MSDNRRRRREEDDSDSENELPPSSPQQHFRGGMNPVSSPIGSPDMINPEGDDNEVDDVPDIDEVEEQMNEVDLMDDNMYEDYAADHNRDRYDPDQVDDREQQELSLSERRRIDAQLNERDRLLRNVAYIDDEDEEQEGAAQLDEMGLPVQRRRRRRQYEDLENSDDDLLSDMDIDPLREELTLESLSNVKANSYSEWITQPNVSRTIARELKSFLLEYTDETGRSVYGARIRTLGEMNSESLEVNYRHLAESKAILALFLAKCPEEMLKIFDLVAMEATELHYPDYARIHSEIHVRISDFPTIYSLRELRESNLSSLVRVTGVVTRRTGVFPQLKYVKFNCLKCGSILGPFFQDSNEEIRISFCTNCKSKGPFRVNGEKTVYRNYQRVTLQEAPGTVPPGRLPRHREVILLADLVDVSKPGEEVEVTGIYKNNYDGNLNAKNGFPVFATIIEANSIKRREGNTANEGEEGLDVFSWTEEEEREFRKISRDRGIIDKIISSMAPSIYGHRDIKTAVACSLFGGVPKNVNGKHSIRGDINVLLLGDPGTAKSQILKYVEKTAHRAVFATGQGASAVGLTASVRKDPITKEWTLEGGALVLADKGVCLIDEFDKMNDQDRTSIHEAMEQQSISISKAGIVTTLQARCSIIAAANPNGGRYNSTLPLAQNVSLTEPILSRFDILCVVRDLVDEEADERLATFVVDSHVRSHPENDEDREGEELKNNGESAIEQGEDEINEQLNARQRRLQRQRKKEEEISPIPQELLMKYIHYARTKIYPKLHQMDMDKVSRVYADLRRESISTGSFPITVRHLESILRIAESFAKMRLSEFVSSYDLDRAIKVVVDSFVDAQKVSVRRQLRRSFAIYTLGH

Mcm5 = biological target: T2, Mcm5 (yeast, UniProt P29496); assay: cryo-EM structure
T2 sequence: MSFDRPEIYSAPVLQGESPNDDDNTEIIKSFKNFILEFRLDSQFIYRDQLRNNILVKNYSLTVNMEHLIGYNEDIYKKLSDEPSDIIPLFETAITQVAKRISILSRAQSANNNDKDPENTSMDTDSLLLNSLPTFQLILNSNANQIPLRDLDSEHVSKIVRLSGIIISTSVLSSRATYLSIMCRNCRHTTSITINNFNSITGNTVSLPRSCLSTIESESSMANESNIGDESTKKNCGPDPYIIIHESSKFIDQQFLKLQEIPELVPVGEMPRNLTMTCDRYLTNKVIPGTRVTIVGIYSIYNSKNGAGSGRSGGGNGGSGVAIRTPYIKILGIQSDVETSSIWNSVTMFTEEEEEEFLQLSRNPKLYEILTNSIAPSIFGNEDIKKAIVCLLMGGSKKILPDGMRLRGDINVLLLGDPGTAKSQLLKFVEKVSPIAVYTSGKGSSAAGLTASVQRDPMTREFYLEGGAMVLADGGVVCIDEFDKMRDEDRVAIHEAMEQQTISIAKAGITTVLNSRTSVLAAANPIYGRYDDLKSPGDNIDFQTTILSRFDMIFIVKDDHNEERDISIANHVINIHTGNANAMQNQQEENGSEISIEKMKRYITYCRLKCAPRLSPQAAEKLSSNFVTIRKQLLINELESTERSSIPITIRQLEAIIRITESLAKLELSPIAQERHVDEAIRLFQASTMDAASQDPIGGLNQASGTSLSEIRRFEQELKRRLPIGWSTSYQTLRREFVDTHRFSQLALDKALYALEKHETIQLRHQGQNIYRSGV

[1] = biological target: origin recognition complex (ORC) (yeast, UniProt P54784;P32833;P54790;P54791;P50874;P38826); assay: cryo-EM 2D class averages

binding result (Mcm2): binds
binding result (Mcm5): binds
B1: Orc6 (natural protein)
chain: MSMQQVQHCVAEVLRLDPQEKPDWSSGYLKKLTNATSILYNTSLNKVMLKQDEEVARCHICAYIASQKMNEKHMPDLCYYIDSIPLEPKKAKHLMNLFRQSLSNSSPMKQFAWTPSPKKNKRSPVKNGGRFTSSDPKELRNQLFGTPTKVRKSQNNDSFVIPELPPMQTNESPSITRRKLAFEEDEDEDEEEPGNDGLSLKSHSNKSITGTRNVDSDEYENHESDPTSEEEPLGVQESRSGRTKQNKAVGKPQSELKTAKALRKRGRIPNSLLVKKYCKMTTEEIIRLCNDFELPREVAYKIVDEYNINASRLVCPWQLVCGLVLNCTFIVFNERRRKDPRIDHFIVSKMCSLMLTSKVDDVIECVKLVKELIIGEKWFRDLQIRYDDFDGIRYDEIIFRKLGSMLQTTNILVTDDQYNIWKKRIEMDLALTEPL

binding result [1]: binds
B2: Cdc6 (natural protein)
chain: MSAIPITPTKRIRRNLFDDAPATPPRPLKRKKLQFTDVTPESSPEKLQFGSQSIFLRTKALLQKSSELVNLNSSDGALPARTAEYEQVMNFLAKAISEHRSDSLYITGPPGTGKTAQLDMIIRQKFQSLPLSLSTPRSKDVLRHTNPNLQNLSWFELPDGRLESVAVTSINCISLGEPSSIFQKIFDSFQDLNGPTLQIKNMQHLQKFLEPYHKKTTFVVVLDEMDRLLHANTSETQSVRTILELFLLAKLPTVSFVLIGMANSLDMKDRFLSRLNLDRGLLPQTIVFQPYTAEQMYEIVIQKMSSLPTIIFQPMAIKFAAKKCAGNTGDLRKLFDVLRGSIEIYELEKRFLLSPTRGSLNSAQVPLTPTTSPVKKSYPEPQGKIGLNYIAKVFSKFVNNNSTRTRIAKLNIQQKLILCTIIQSLKLNSDATIDESFDHYIKAITKTDTLAPLQRNEFLEICTILETCGLVSIKKTKCKGKTKRFVDKIDVDLDMREFYDEMTKISILKPFLH
